In experiment [1] the target is T1, extracellular domain (ECD) of human αKlotho, amino acids E34-S981 with C-terminal 6-His tag (R&D Systems … (human, UniProt Q9UEF7 34-981)).
T1 construct: range 34-981; also called αKlotho (aa34-981); target antigen
T1 sequence: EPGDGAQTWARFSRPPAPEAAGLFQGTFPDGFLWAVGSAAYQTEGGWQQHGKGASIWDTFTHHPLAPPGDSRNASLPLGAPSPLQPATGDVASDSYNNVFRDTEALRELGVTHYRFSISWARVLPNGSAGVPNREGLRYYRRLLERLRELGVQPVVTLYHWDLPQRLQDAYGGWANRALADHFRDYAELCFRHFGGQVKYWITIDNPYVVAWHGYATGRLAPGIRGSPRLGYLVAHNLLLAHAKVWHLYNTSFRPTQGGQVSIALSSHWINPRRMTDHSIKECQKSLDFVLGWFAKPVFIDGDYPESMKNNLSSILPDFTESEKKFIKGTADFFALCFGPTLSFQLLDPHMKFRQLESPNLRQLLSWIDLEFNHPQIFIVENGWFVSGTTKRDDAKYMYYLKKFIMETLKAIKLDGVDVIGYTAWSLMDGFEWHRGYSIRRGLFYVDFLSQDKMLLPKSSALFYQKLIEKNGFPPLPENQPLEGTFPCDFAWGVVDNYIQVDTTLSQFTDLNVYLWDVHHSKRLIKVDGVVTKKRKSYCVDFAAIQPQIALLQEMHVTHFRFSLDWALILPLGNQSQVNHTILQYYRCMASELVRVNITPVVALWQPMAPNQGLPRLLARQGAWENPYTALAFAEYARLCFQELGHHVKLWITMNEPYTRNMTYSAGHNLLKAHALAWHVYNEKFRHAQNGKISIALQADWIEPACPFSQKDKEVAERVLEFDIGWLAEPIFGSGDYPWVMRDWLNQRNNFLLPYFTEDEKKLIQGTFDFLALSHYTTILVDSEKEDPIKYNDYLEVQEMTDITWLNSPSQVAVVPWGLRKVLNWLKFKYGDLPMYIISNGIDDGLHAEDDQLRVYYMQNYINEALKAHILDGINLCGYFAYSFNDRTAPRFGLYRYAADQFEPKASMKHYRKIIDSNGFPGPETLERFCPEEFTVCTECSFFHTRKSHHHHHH
Put plainly: SPR, Fab captured by anti-H+L antibody, αKlotho injected. On the procedure:
(§1) Affinity estimates for each of the antibodies were determined by surface plasmon resonance (SPR). Fabs were immobilized using an anti-H+L antibody and serial dilutions of αKlotho were injected.

The target of a further experiment is T2, bovine serum albumin (bovine, UniProt P02769 25-607).
T2 construct: also called BSA
Put plainly: Fab ELISA, purified Fab 5 ug/ml on immobilised BSA, anti-Flag-HRP, A450. On the procedure: FIG. 10 is a graph showing absorbance values of Fab ELISAs with additional αKlotho antibodies. Purified Fabs [5 ug/ml] were incubated with immobilized αKlotho (1 ug/ml) or bovine serum albumin (BSA), as a negative control. After washing off unbound Fab, bound Fab were detected using an HRP-conjugated anti-Flag anti-body (Fabs have Flag-tag on the light chain). Colorimetric HRP reagents allow for absorbance readings at 450 nm.

Experiment [2] deals with T1, extracellular domain (ECD) of human …. Put plainly: SPR, Fab captured by anti-H+L IgG, αKlotho injected at 50 to 6.25 ug/ml, Langmuir fit [continued]. On the procedure: as §1

Substitutions are numbered along the chain they refer to.

T2 sequence (P02769 25-607 limits assumed): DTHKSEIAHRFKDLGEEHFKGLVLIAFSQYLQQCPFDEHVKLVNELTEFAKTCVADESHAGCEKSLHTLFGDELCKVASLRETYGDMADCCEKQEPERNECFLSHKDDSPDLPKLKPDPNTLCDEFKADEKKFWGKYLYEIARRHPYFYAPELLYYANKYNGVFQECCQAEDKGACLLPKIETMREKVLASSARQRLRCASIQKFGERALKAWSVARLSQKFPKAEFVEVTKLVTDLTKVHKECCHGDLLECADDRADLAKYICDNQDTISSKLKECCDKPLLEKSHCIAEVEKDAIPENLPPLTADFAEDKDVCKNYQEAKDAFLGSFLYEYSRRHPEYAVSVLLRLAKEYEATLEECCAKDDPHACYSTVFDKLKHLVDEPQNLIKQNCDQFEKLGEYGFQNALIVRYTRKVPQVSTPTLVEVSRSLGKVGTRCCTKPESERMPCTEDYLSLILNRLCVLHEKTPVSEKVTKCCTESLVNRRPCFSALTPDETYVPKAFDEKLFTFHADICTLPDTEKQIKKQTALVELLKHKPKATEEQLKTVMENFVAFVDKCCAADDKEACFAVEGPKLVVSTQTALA

B1: anti-αKlotho Fab clone 4829 (Fab, V domains shown)
VH: EVQLVESGGGLVQPGGSLRLSCAASGFNISSYYIHWVRQAPGKGLEWVASIYSSYGYTSYADSVKGRFTISADTSKNTAYLQMNSLRAEDTAVYYCARYSWSPYWWWAYSGLDYWGQGTLVTVSS
VL: DIQMTQSPSSLSASVGDRVTITCRASQSVSSAVAWYQQKPGKAPKLLIYSASSLYSGVPSRFSGSRSGTDFTLTISSLQPEDFATYYCQQGGGLITFGQGTKVEIKR
notes: Fab (also as Fab-phage); FLAG tag on light chain; also called sb198
The molecule B1 yielded a Kd in experiment [1] of 1.8 nM. In the experiment with bovine serum albumin, the binding result was “no binding (tested: 5 ug/ml)”. Also, in experiment [2], binding was characterised by a dissociation constant (Kd) of 0.907 nM, the koff was determined as 0.000614 s⁻¹ and the kon is 678000 M⁻¹ s⁻¹.

B2: anti-αKlotho Fab clone 4809 (Fab, V domains shown)
VH: EVQLVESGGGLVQPGGSLRLSCAASGFNIYSYYIHWVRQAPGKGLEWVASIYSYYGSTSYADSVKGRFTISADTSKNTAYLQMNSLRAEDTAVYYCARSGPWAWYGLDYWGQGTLVTVSS
VL: DIQMTQSPSSLSASVGDRVTITCRASQSVSSAVAWYQQKPGKAPKLLIYSASSLYSGVPSRFSGSRSGTDFTLTISSLQPEDFATYYCQQSGWAYHPITFGQGTKVEIKR
notes: Fab (also as Fab-phage); FLAG tag on light chain; also called sb178
B2 showed a Kd in experiment [1] of 0.845 nM. Besides, in the experiment with bovine serum albumin, the binding result is on record as “no binding (tested: 5 ug/ml)”. Further, in experiment [2], the Kd came to 0.46 nM, the koff is 0.000258 s⁻¹ and the kon stood at 560000 M⁻¹ s⁻¹.

B3: anti-αKlotho Fab clone 4820 (Fab, V domains shown)
VH: EVQLVESGGGLVQPGGSLRLSCAASGFNISSYYMHWVRQAPGKGLEWVASIYSSYSSTYYADSVKGRFTISADTSKNTAYLQMNSLRAEDTAVYYCARGAWAMDYWGQGTLVTVSS
VL: B2 VL with G92P, A94G, Y95A, H96Y, P97L
notes: Fab (also as Fab-phage); FLAG tag on light chain; also called sb189
B3 showed a Kd in experiment [1] of 2.7 nM. In addition, in the experiment with bovine serum albumin, the binding result is on record as “no binding (tested: 5 ug/ml)”. Also, in experiment [2], binding was put at a Kd of 1.48 nM, the koff worked out at 0.00116 s⁻¹ and the kon was 780000 M⁻¹ s⁻¹.

B4: anti-αKlotho Fab clone 4826 (Fab, V domains shown)
VH: EVQLVESGGGLVQPGGSLRLSCAASGFNISSYYMHWVRQAPGKGLEWVASISSSYGYTYYADSVKGRFTISADTSKNTAYLQMNSLRAEDTAVYYCARGYPASSYYYPSSALDYWGQGTLVTVSS
VL: B2 VL with S91A, W93F, A94F, Y95S, H96Y
notes: Fab (also as Fab-phage); FLAG tag on light chain; also called sb195
Take B4: binding in experiment [1] was characterised by a dissociation constant (Kd) of 3.3 nM. Moreover, in experiment [2], the affinity, expressed as Kd, was 2.03 nM; the koff was 0.00218 s⁻¹; the kon was found to be 1.07e+06 M⁻¹ s⁻¹.

B5: anti-αKlotho Fab clone 4823 (Fab, V domains shown)
VH: EVQLVESGGGLVQPGGSLRLSCAASGFNFSSSSIHWVRQAPGKGLEWVAYIYSSYGYTYYADSVKGRFTISADTSKNTAYLQMNSLRAEDTAVYYCARAAHYGYYVHSGLDYWGQGTLVTVSS
VL: DIQMTQSPSSLSASVGDRVTITCRASQSVSSAVAWYQQKPGKAPKLLIYSASSLYSGVPSRFSGSRSGTDFTLTISSLQPEDFATYYCQQSSYSLITFGQGTKVEIKR
notes: Fab (also as Fab-phage); FLAG tag on light chain; also called sb192
In experiment [1], B5 returned a Kd of 1.6 nM. In addition, the binding result with bovine serum albumin is listed as “no binding (tested: 5 ug/ml)”. Also, in experiment [2], the Kd stood at 0.991 nM, the koff was 0.000744 s⁻¹ and the kon came out at 750000 M⁻¹ s⁻¹.

B6: anti-αKlotho Fab clone 4827 (Fab, V domains shown)
VH: EVQLVESGGGLVQPGGSLRLSCAASGFNFSSSSIHWVRQAPGKGLEWVAYISSSSGSTSYADSVKGRFTISADTSKNTAYLQMNSLRAEDTAVYYCARAYHSYFYGSYWSYGWAGALDYWGQGTLVTVSS
VL: B5 VL
notes: Fab (also as Fab-phage); FLAG tag on light chain; also called sb196
For the molecule B6, the binding result with bovine serum albumin is listed as “no binding (tested: 5 ug/ml)”.

B7: anti-αKlotho Fab clone 4815 (Fab, V domains shown)
VH: EVQLVESGGGLVQPGGSLRLSCAASGFNFSSSSIHWVRQAPGKGLEWVASISSSYGYTYYADSVKGRFTISADTSKNTAYLQMNSLRAEDTAVYYCARGFSSSAHWYWSWYGPGGGFDYWGQGTLVTVSS
VL: B5 VL
notes: Fab (also as Fab-phage); FLAG tag on light chain; also called sb184
As for B7, the binding result in the experiment with bovine serum albumin is on record as “no binding (tested: 5 ug/ml)”.

B8: anti-αKlotho Fab clone 4832 (Fab, V domains shown)
VH: EVQLVESGGGLVQPGGSLRLSCAASGFNFSSSSIHWVRQAPGKGLEWVAYISSSYGYTSYADSVKGRFTISADTSKNTAYLQMNSLRAEDTAVYYCARASGWFSHFYPAAVSGMDYWGQGTLVTVSS
VL: B5 VL
notes: Fab (also as Fab-phage); FLAG tag on light chain; also called sb201
As for B8, the Kd in experiment [1] was found to be 0.515 nM. The binding result with bovine serum albumin was “no binding (tested: 5 ug/ml)”. In experiment [2], this molecule displayed a Kd of 0.123 nM, a koff of 4.61e-05 s⁻¹ and a kon of 374000 M⁻¹ s⁻¹.

B9: anti-αKlotho Fab clone 4806 (Fab, V domains shown)
VH: EVQLVESGGGLVQPGGSLRLSCAASGFNISSSSIHWVRQAPGKGLEWVAYISSSYSSTSYADSVKGRFTISADTSKNTAYLQMNSLRAEDTAVYYCARSSGGGYYHWWVVPYAMDYWGQGTLVTVSS
VL: B5 VL
notes: Fab (also as Fab-phage); FLAG tag on light chain; also called sb175
As for B9, the binding result with bovine serum albumin is recorded as “no binding (tested: 5 ug/ml)”.

B10: anti-αKlotho Fab clone 4810 (Fab, V domains shown)
VH: EVQLVESGGGLVQPGGSLRLSCAASGFNLSSSSIHWVRQAPGKGLEWVAYISPSYGSTSYADSVKGRFTISADTSKNTAYLQMNSLRAEDTAVYYCARSGYYSGAYWHWWVVPYAMDYWGQGTLVTVSS
VL: B5 VL
notes: Fab (also as Fab-phage); FLAG tag on light chain; also called sb179
For the molecule B10, the binding result with bovine serum albumin is “no binding (tested: 5 ug/ml)”.

B11: anti-αKlotho Fab clone 4828 (Fab, V domains shown)
VH: EVQLVESGGGLVQPGGSLRLSCAASGFNFSSSSIHWVRQAPGKGLEWVASISSSYGYTYYADSVKGRFTISADTSKNTAYLQMNSLRAEDTAVYYCARYVVGGWWYHYGMDYWGQGTLVTVSS
VL: B5 VL
notes: Fab (also as Fab-phage); FLAG tag on light chain; also called sb197
In experiment [1], B11 registered a Kd of 4.9 nM. In the experiment with bovine serum albumin, the binding result was “no binding (tested: 5 ug/ml)”. In experiment [2], this molecule returned a Kd of 2.48 nM, a koff of 0.000782 s⁻¹ and a kon of 315000 M⁻¹ s⁻¹.

B12: anti-αKlotho Fab clone 4834 (Fab, V domains shown)
VH: EVQLVESGGGLVQPGGSLRLSCAASGFNFSSSSIHWVRQAPGKGLEWVASISSSYGYTYYADSVKGRFTISADTSKNTAYLQMNSLRAEDTAVYYCARAVSFYYWAWYGPGFAMDYWGQGTLVTVSS
VL: B5 VL
notes: Fab (also as Fab-phage); FLAG tag on light chain; also called sb203
As for B12, in the experiment with bovine serum albumin, the binding result is “no binding (tested: 5 ug/ml)”.

B13: anti-αKlotho Fab clone 4830 (Fab, V domains shown)
VH: EVQLVESGGGLVQPGGSLRLSCAASGFNIYYSSIHWVRQAPGKGLEWVASIYPYYSYTYYADSVKGRFTISADTSKNTAYLQMNSLRAEDTAVYYCARSVASALDYWGQGTLVTVSS
VL: DIQMTQSPSSLSASVGDRVTITCRASQSVSSAVAWYQQKPGKAPKLLIYSASSLYSGVPSRFSGSRSGTDFTLTISSLQPEDFATYYCQQYSWYWYSPITFGQGTKVEIKR
notes: Fab (also as Fab-phage); FLAG tag on light chain; also called sb199
In experiment [1], B13 returned a Kd of 2.9 nM. Further, the binding result with bovine serum albumin is “no binding (tested: 5 ug/ml)”. In experiment [2], binding was characterised by a dissociation constant (Kd) of 1.53 nM, the koff is 0.00113 s⁻¹ and the kon amounted to 741000 M⁻¹ s⁻¹.

The values are drawn from US20190041402A1 (GOVERNING COUNCIL OF THE UNIVERSITY OF TORONTO, published 2019).
